One experiment concerns the target T1, huFc-NKG2A/CD94 (UniProt P26715 94-233; Q13241 32-179, limits assumed).
T1 construct: The construct is named only, and its architecture is not described; The Fc is placed N-terminal following the printed name; not shown: human Fc (huFc)
The experiment in a line: phage supernatant ELISA, huFc-NKG2A/CD94 against huFc-NKG2C/CD94 and huFc-NKG2E/CD94 (selection criterion met by MA-1).

The target of a further experiment is T2, huFc-NKG2C/CD94 (UniProt P26717 94-231; Q13241 32-179, limits assumed).
T2 construct: The construct is named only, and its architecture is not described; not shown: human Fc (huFc)
The experiment in a line: ELISA, serial dilution of MA-1 on huFc-NKG2C/CD94, anti-mouse Ig-HRP. In general terms: An ELISA detects its analyte on a solid surface through an enzyme-linked reagent.

The target of another experiment is T3, huFc-NKG2E/CD94 (UniProt Q07444 94-240; Q13241 32-179, limits assumed).
T3 construct: The construct is named only, and its architecture is not described; not shown: human Fc (huFc)
Briefly: ELISA, serial dilution of MA-1 on huFc-NKG2E/CD94, anti-mouse Ig-HRP.

T3 sequence (Q07444 94-240 limits assumed, chain 1 of 2): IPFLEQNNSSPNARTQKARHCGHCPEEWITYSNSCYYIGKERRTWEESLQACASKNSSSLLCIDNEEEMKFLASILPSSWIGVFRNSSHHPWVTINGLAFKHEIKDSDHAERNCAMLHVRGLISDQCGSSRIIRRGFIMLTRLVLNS
T3 sequence (Q13241 32-179 limits assumed, chain 2 of 2): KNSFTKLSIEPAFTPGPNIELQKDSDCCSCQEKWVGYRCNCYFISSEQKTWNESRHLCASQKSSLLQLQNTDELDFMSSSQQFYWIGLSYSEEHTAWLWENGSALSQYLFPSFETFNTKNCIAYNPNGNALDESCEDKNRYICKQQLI
T1 sequence (P26715 94-233 limits assumed, chain 1 of 2): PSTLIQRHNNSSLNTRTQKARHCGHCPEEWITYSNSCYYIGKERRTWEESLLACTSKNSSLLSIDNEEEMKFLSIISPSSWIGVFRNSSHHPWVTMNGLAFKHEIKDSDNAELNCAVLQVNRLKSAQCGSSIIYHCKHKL
T1 sequence (Q13241 32-179 limits assumed, chain 2 of 2): as the sequence (Q13241 32-179 limits assumed, chain 2 of 2) above
T2 sequence (P26717 94-231 limits assumed, chain 1 of 2): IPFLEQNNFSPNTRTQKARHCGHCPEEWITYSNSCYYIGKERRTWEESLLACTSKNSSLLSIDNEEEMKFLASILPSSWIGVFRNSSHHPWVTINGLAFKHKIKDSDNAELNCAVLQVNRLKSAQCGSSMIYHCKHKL
T2 sequence (Q13241 32-179 limits assumed, chain 2 of 2): as the sequence (Q13241 32-179 limits assumed, chain 2 of 2) above

B1: 噬菌体单克隆抗体MA-1 (phage-displayed single-chain antibody MA-1) (scFv)
chain: EVKLEESGGGLVKPGGSLKLSCAASGFAFSDYDMSWVRQTPEKRLEWVATISSGGSYTYYPDSVKGRFTISRDNARNTLYLQMSSLRSEDTALYYCTSPRQVGLRKAFDYWGQGTTLTVSSDIVVTQSPALMSASPGEKVTMTCSASSSVSYMYWYQQKPRSSPKSWIYLTSNLASGVPARFSGSGSGTSYSLTISSMEAEDAATYYCQQWSSNPFTFGSGTKLEIKRAD
B1: the “OD450nm读值 with NKG2A relative to NKG2C/E” value in the experiment with huFc-NKG2A/CD94 is over 3 fold.

B2: MA-1鼠源抗体 (murine full antibody MA-1, mouse IgG2a / mouse Ck) (antibody, V domains shown)
VH: EVKLEESGGGLVKPGGSLKLSCAASGFAFSDYDMSWVRQTPEKRLEWVATISSGGSYTYYPDSVKGRFTISRDNARNTLYLQMSSLRSEDTALYYCTSPRQVGLRKAFDYWGQGTTLTVSS
VL: DIVVTQSPALMSASPGEKVTMTCSASSSVSYMYWYQQKPRSSPKSWIYLTSNLASGVPARFSGSGSGTSYSLTISSMEAEDAATYYCQQWSSNPFTFGSGTKLEIKR
notes: also called 抗NKG2A单克隆抗体MA-1; 鼠源全抗分子
For B2, the binding result with huFc-NKG2C/CD94 and with huFc-NKG2E/CD94 was “no binding” in each case.

The values are drawn from patent CN116178551A (BEIJING DONGFANG BIOTECH CO LTD, dated 2023).
